Experimental data reported in a protein production outcome set (Wang et al. 2014).

Experiment: label from the status in PepcDB records

Row | Sequence | protein production
1 | MWAGMYPSQPDQVKSKPTYILNYFINPMTGSDILGLLMVYVYVAVLLLVSERFLGDRPNLSRKFVHIMVGNILFILPLFESRLVITFLAAAPFILITFLLSPYSPLRVKHRASSYGHGLGLVYYSISWTILAYLFFEAPWITGIGIAAMSYGDGFASLTGERFGRTTFSVLGDKKSLEGSLGMFIILLVMLPVVLTYYSQGFTPYLILGVALVSTVLEALTPRGLDNLTACFGAVAAYILLGGMGI | failed
2 | MWIFFRFISGIYLKNFFIIFFSLLGFYCGIDLLLNFKDLPKAANLDLLYVMFLSFSAVPYVLPISLIFALVVSLISMIRANEFVSLYALGLSRNYVILFPFLWALFFCCIYIGLNFTSFAYANDYKRNILKNGTIMNQSGEVFLKFNNNFVYISKINNGQNSAQNIKIFNINDLNLSSFVSAKNAYFEGESWILRDGNITLLPKNYELANDGLKIQDFSELKSLEGFKPKIIEGVASNSDYSISDALESFELFKAQNVNTDALKINLYKFVFTPFFAPFLMLIMYYFFPVIARFFNLAIVTFMAFVVTLMIWGVLFLLTRLSENSVIASEIGIVVPIIILGCLSAYMYYKHR | failed
3 | MWKCHRYMMSSHLHRQLDLINMEIKTIASGSKGNAYVISSGRSQLLIECGVNFDKIRKALNFDLSAVEACLISHEHGDHVAGVKKMLRTSSIKIYASEGTLSALNVPDSRQFILKEKDAQNIGEWIILPFQTEHDAKEPLGFMIQRHNERLLFITDSYFVRYKFKNINYLMIECNYSADILEENVINKVIHQVQKKRVLQSHFSLENVKEFLNANDLSQLREIHLLHISERNGDPERFKKEIQAMTGVPVYV | failed
4 | MWKPLLIAVGLLSLVCGAIGVVLPVIPTTPFLLLSAFCFTRSSERLHNYLVSHRIFGEYISNYYNHAMTPQHKFRTLLTLWCGIILSCFLIGATIPWIILPLIATGVSIHIIRLKPRPEATPTASSPEADSGSEPHFADDHKA | failed
5 | MWLLCDCLLCFPLSPEEFLTEILDLLELVFVILVVCEWKPKRFAGEFRLLMEQRVQLRVGTMETISNEGDVDREQVLETFGIENETGKETNGSRSFDVGYSSGDTLETLPKASKVDISPADVLKTLFFILVWYTFSTFLTLYNKTLLGDDLGKFPAPLLMNTIHFSIQAVLSKMITWYWSGRFQPDVTISWRDYFVRVVPTALGTAMDINLSNESLVFISVTFATMVSYFIYYVQICSPNISSSVCFCLQSPSLKLFGIISVISAGVLLTVAKETEFEFWGFVFVMLAAVMSGLKNPFIFMSCVAPVMAIATGLLSLLLDPWSEFRDNKYFDSGAHFARTCFLMLFGGALAFCMVLTEYVLVSVTSAVTVTIAGVVKEAVTIVVAVFYFHDEFTWLKGVGLMIIMVGVSLFNWYKYDKLQKGHKTEEEKQLQAPSQTGKYVILDEMDDQENSP | failed
6 | MWLRSYRITFSCLTRLKTYRSSWKKLYSTSQTVDSKEVKTFQALAHSWWDEQGKFAPLHSMNDLRVPFIRDNLLKTSTNHDPGKPLSGMKILDVGCGGGLLTEPLGRLGASVVGIDPVAENIKIAQHHKSFDPVLDKRIQYRVCSLEETLNENAECFDAVVASEVVEHVNNLEMFIQCCYQVLKPGGSLFITTVNKTQLSYVLGIVFSEQIAGIVPKGTHTWEKFVSPEKLESILEPNGLSVETVAGMVYNPFSGYWHWTENTSLNYAAHAVRARAQEHLEPAESA | failed
7 | MWNGREYMSEPASPEKKVIIIAGPNGAGKTTFAEEFLPQEAQCLTFINADLIAAGLAPFEPEQAAFRAGRLMLEEIYNHAQRGQNFAFETTLSGRSYARLIPTWQAQSYIVKLFFLQLLSPELAIARVAQRVRAGGHHVPEAIIRRRFAAGLHNLETLYKLIVDEWVCYDNSGNEPVLINKGGKLLEHHHHHH | not failed
8 | MWPNGSSLGPCFRPTNITLEERRLIASPWFAASFCVVGLASNLLALSVLAGARQGGSHTRSSFLTFLCGLVLTDFLGLLVTGTIVVSQHAALFEWHAVDPGCRLCRFMGVVMIFFGLSPLLLGAAMASERYLGITRPFSRPAVASQRRAWATVGLVWAAALALGLLPLLGVGRYTVQYPGSWCFLTLGAESGDVAFGLLFSMLGGLSVGLSFLLNTVSVATLCHVYHGQEAAQQRPRDSEVEMMAQLLGIMVVASVCWLPLLVFIAQTVLRNPPAMSPAGQLSRTTEKELLIYLRVATWNQILDPWVYILFRRAVLRRLQPRLSTRPRRVSLCGPAWSTVARSRLTATSASRVQAILVPQPPEQLGLQA | failed
9 | MWQNFYLTTLKLSQYTQEEKPILPADNMDPRALASVHAWEHGDFMCKGYIQSRLSDPLYNVYSNVETSNELWDSLDKKYQTKDAGSQKYAAAKFLDYKMVDSRPMMVQVEELTCLFHDI | not failed
10 | MWQQHLAILPILVPLLAALLQLLPWGDRPQPKRRAIGLLSSILTLILTIALLVQVNQDQMIVYALGNWSAPFGIVLMVDKLSALMMLVTAILALPVLIYGCYAEDNLGSHFQALFQFQIMGIMGAFATGDIFNLFVFFEVLLISSYALLMHGGGKFRLRTTLHYVLLNLLGSALFLISVGTLYGVTGTLNMADLATQVQQLSGDQAALAKAGGMMLLIVFGIKAAILPLHFWLPQAYSTTTGVVAALFAIMTKVGVYAIVRVYTLIFGPEANELALIAHDWLWVMGLVTMLAGAIGIIGARDLRLLVAYLVVISIGTLIATYSLNGIATTGAMLFYLIHSTFITGALFLLADLIAFERGKTASRIVSGKKMANHSAYSVMFLIAAIAIIGLPPLSGFVGKLMIMESASPTGASFWLWGAMLGATLIMLISVTRAGSKMLWHTLSGKANEQSAPLGKRAAVVMLLSLSVVMTLFASPIRNYTDDVAEQLYDIDQYPSRVLTKGAE | failed
11 | MWRDTMSAFLGELIGTALLIVLGGGVCAGVSLKKSFAKDSGWIVITMGWGLAVAVAAYAVGSISGAHLNPALTIGLAFKGAFPWSDVPGYIVAQMIGAIIGAVIVYLHYLPHWKETEDPGTKLGVFATGPAIPNTFANLLSEMIGTFVLVFGILAIGANKFADGLNPFIVGFLIVSIGLSLGGTTGYAINPARDLGPRIAHFFLPIAGKGGSNWKYAWIPVVGPILGGSLAGLFHQVVFEGKQNSALIYVIIATVIVLAISYMTSKKSGSNTNSRKVA | failed
12 | MWRRSLTESHSNELRLELTSRIVSAYLSRNVIAPSELPHLIQQTYGSLGKTSEPTKTPATVEEQRPAVPIKKSVTDDFIVCLEDGKSFKSLKRHLMAKYALTPEQYREKWKLPADYPMVAPNYARKRSELARATGLGKKSAANLSPSLQAVRSA | not failed
13 | MWRSLLLPTCSHALIELHFFSHYCTIMMNQNTQPTNNLKDKKITYNFNKLQKRLRRNVGNAIANFNMIEAGDKVMVCLSGGKDSYTLLDILLNLKLSAPINFDIVAVNLDQKQPGFPEHILPEYLASIGVEYKIVQENTYGIVKEKIPEGKTTCSLCSRLRRGILYRTATELGATKIALGHHRDDMLETLFLNMFYNGKLKSMPPKLISDDAKHIVIRPLAYCKEKDIEKYAEAKQFPIIPCNLCGSQPNLQRQVVKEMLQNWDRQYPGRIETMFSALQNVTPSHLCDTQLFNFKAVKHGEMINGIEGDIAFDKMDIPMTLNIQEEDEKQAYTQNGTIQFKAV | failed
14 | MWSIFRKEIAVFLNSLIAYLVILVFLTFIGVFMWVLPASSILDYGYAEMDTLFSYGPLAFLLLIPAITMRSFAEEKKDGTIELLLTKPLSDWQLLLGKYLSACTLVALALIPTVLYYISVYQLGKPVG | failed
15 | MWSILALGAVERCIHHIIDLDAITRIQTNQLQGKLLRVVTDSPQLSVDVFFDENRVRLEPTVTGQSQTPSIFEQRPFDPQYKMTDATATLHVKNIVELVKLLFNDPDQIGNIPVEGDYHLLQDIQKIMQQSEPDLAAHLSPWIGPALAHELGKIRLAPQQLKRSMQSHLFFVEDALKEDSGLFAPRWQMDDLQHATRQLNQELDRVEARLQQLNLQLQSDN | failed
16 | MWWGVAAALLANVLYSTGFVLEKRALASLPEVDIRRPARLLRLVLGSPLWIGGSLSLAAGFGAQLAVYRTLPIAAAQGIFVSGLVLLVLLSARLLGEETTGRERYALGAILAALLMVVLSLREGSDKVSRSAPVPLILLVCVPSLAMGVWLYGSAERRARHRHRMPTTGVEYGVAVGLLYGVSSLAIKGVSSYLTPADGLGGAVVGLLRSPYPYLLLFTGVFGLVMSQAALQRCRASLIVPVCTTVTCLFTAVLGTLAFGEALPHEPLRLALRLAGTALAVSVLLAMPKHDTAPQPSAAPKELTPP | failed
17 | MWWSGLASQSKAQETPGRRGLEERKQLIMEIYNSLRSADIASIEFEGPEIAVYIRNPKFIVENENVVKDLARKLRKRIVVRTHPKSRKSMEYTIKFIRENVPPDVGIVDIQFDDVLGEVRVIAEKPGKLMGRGKVFRNLVLAETGWRLEVYRKPLLQSGLLDSVLRHLQRHAEERRRALRDIGERIFRDTLIGTRHVRVVGLGSFGEVGRSAILVDTGESKVLLDAGLSPSGYGPDSYPYYWSPEFRVDELDAVVISHAHLDHVGTLPLLFKYGFRGPVYATPPTRDIMIIVLRDLINLMRKAQGEPPFEPRDVEKALTRLIPVNYNTVTDVAPDIKMTFINAGHILGSSMVHLHIGQGLYNILYTADFKFYRIKNDRSTRLLPPAEYSFQRVEALIMEATYGSKETQPRAEAEEELINLVNKVYKRGGKLLIPVMAVGRGQEILVVLNEALRSGKIPEIPIYVDGMVYEVTAVYTNYPELLVKPIRDRILKQGENPFEGPTTVYVTDHYKRDEAMYSDKPAIILSTSGMMNGGPIVEYFKYLADDPRNALAFVSYQAPGTLGRRLQSGEREIELEMDGGIRRIKVNMEIVSIEGFTGHSTRGELLSFLRRLNPKPRNIVLNHGEPSAIAALAHTVKTGWSKLGFESPPIIEAPENLEGVRLYPRNLKMKLALQHS | failed
18 | MYADYEYYEKEYLLGKEPVIAERNYLYYEKQARAEVDKITFNRCRGLDEIPEEVKDCVCDVAEYLCKYDRYSGSDAPGPLASFGNDGETGTYDLSNSIYTESKRKEKIQETLYKHLADTGLLYSGR | failed
19 | MYCKGRREREAYIVVKIDLITGFLGSGKTTFIRKYVKYLVDKGYNVGILENDYGAVNVDMMLLQDLMGPNCHAEMVAGGCGEDCHKRRFKTKLIAMGMSGYDRVIVEPSGIFDVDEFFDTLHEEPLDRWYEVGSIIAIVDAKLDTDMSRQSRYVLASEIANCGALVMSKTSGVSEDEISHTKEFVNKTLEEFQCRRRFDGDVITKAWELFGSEDYERFMSVGYKLNDFTKLWFKQSDVYSSVYIMNRNFTREQLVDIVNRVFSDKDCGDVFRIKGFFSVEQDSWLELNATVHKTEIKPIDKGQKIIIIIGSDLMEDKIKQYFEE | failed
20 | MYDMVREKTYYFMIVERITIMTEKMTRMTQFVKEEIANAITHGIGAILSIPALIILIIHASKHGTASAVVAFTVYGVSMFLLYLFSTLLHSIHHPKVEKLFTILDHSAIYLLIAGTYTPFLLITLRGPLGWTLLAIIWTLAIGGIIFKIFFVRRFIKASTLCYIIMGWLIIVAIKPLYENLTGHGFSLLLAGGILYSVGAIFFLWEKLPFNHAIWHLFVLGGSAMMFFCVLFYVLPTAS | failed
21 | MYDNENPNGFGSNPEENNDDNISGTENNNFEEVNSQQVSQDAVNSSEQNTEQTAEQESSVYRQSYVNDEHHNADDVSGNGTYYSQGSNNSSNDSTQNGSYYNNTQDGSYYNSNSNNSQNNGYYYSTNDSQTNNGYNYNSNNNNNGNGKKKKKKRTLIAVVAVCVVLLAGTIGISAAYFSKNKDSLTNVLEDGTLSNNNNNSNSNNDNSSDSGNYESIGSTNTQNDANSSSTSGVTVTDVSSVVSSAMPSVVAITSKTLVESRNDYSQDIWEYYFGGGNSGNNKSNSYEEDAAGSGIIVDQTSTELLIVTNNHVVEGADSLKIQFAGTESKDSVDGYIKGTDSTKDVAVVAVKLKDIPSDVLKNIKKATLGDSDKVNVGEGVIAIGNALGYGQSVTTGIISAKDRKVQLENQTMTLLQTDAAINGGNSGGALLNASGEVIGINVAKYSSSGSSSNASVEGMGFAIPISSVKDIISDLETKETRTKVSEDERGYLGISGFDVDEQTSQAYSIPQGIQVQSVVKGGPAENAGIAASDVITKFDGQDVSSMASLQSMLEYYKKGEQVKVTIEYRDGREYKTKDVTVTLGDKSVIETTQNAAN | failed
